Reference: publication PMC2500141 (The Journal of Cell Biology, 2008)

Target: Drp1-6His phosphorylated at Ser600 by CaMKIα (UniProt O00429-4 1-699, phosphoserine at 600 (phosphorylated in vitro by CaMKIα))
Experiment: pull-down

B1: GST-hFis1 (hFis1-ΔC, without 30 amino acids at the C terminus) (domain or fragment, human, UniProt Q9Y3D6 1-122, looked up)
chain: MEAVLNELVSVEDLLKFEKKFQSEKAAGSVSKSTQFEYAWCLVRSKYNDDIRKGIVLLEELLPKGSKEEQRDYVFYLAVGNYRLKEYEKALKYVRGLLQTEPQNNQAKELERLIDKAMKKDG
binding result: binds
